Values of other authors, collected in paper PMC7618755.

How the values were obtained:
PD-L1 (Homo sapiens) = PD-L1 (Homo sapiens) (UniProt Q9NZQ7)
CD80 (Homo sapiens) = CD80 (Homo sapiens) (UniProt P33681)

Chain of UniProt Q9NZQ7 (Q9NZQ7 19-238): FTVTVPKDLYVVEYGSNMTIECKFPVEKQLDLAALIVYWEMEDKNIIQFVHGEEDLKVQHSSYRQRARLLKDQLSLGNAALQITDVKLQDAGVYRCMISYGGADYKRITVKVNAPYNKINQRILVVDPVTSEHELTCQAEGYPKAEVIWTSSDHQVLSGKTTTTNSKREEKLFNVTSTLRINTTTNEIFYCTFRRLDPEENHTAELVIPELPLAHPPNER

Kd (PD-L1 (Homo sapiens)): 20 µM | Kd (CD80 (Homo sapiens)): 35 µM
Substance: CD80 (from UniProt P33681)
